PMC3562662

Substrate: O=C(O)/C=C/c1ccc(O)c(O)c1
Assay: radiometric methyltransferase assay, scintillation counting, nonlinear Michaelis-Menten fit
Type: biochemical, Brachypodium distachyon
Conditions: co-substrate S-[methyl-14C]-adenosyl-L-methionine plus unlabeled SAM, 0.1 M Tris-HCl pH 7.5, 30°C, 20 min, methods heading b55 names BdCOMT1

B1: BdCOMT4 (Brachypodium distachyon) (protein)
chain: MGSTAADMAATADEEACMFALQLASSSILPMTLKNAIELGLLDTLVQASGKSLTPAEVAAKLPSSSNPAAPDMVDRMLRLLASYGVVSCAVEEGENGKLSRRYAAAPVCKWLTPNEDGVSMAALALMNQDKVLMESWYYLKDAVLDGGIPFNKAYGMSAFEYHGTDPRFNRVFNEGMKNHSIIITKKLLDLYPGFEGLGTLVDVGGGVGATVGAIVARHPAIKGINFDLPHVISEGIPFPGVTHVGGDMFQKVPSGDAILMKWILHDWSDAHCATLLKNCYDALPAHGKVVIVECILPVNPEATPKAQGVFHVDMIMLAHNPGGKERYEREFEELARGAGFTGVKATYIYANAWAIEFTK
notes: full-length cDNA (from Bd21-3 plants) in pQE-T7-1, NdeI/XhoI, His-tagged; primer adds Met-Lys-Gln before native Met; expressed in E. coli, Ni-NTA purified
Work on B1 yielded a Km of 187 µM.
